pKd: −log10 of the molar value.
Target: HER-3 (human, on cells) (human) (UniProt P21860)
Test: indirect FACS Scatchard analysis on cells

## U1-46 (antibody)
  pKd: 7.86
